Laboratory results published in US20230255948A1 (Stanford University, published 2023).

What was measured:
[1] = molecular target: α9β1 integrin on mouse RAW macrophage cells (mouse, UniProt B8JK39 29-1036; P09055 21-798); experiment: cell-based or functional assay
[2] = molecular target: α4β1 integrin on mouse B16 melanoma cells and mouse RAW macrophage cells (mouse, UniProt Q00651 41-1039; P09055 21-798); experiment: cell-based or functional assay
α4β1 integrin on mouse B16 melanoma cells and mouse RAW macrophage cells, sequence (Q00651 41-1039, chain 1 of 2): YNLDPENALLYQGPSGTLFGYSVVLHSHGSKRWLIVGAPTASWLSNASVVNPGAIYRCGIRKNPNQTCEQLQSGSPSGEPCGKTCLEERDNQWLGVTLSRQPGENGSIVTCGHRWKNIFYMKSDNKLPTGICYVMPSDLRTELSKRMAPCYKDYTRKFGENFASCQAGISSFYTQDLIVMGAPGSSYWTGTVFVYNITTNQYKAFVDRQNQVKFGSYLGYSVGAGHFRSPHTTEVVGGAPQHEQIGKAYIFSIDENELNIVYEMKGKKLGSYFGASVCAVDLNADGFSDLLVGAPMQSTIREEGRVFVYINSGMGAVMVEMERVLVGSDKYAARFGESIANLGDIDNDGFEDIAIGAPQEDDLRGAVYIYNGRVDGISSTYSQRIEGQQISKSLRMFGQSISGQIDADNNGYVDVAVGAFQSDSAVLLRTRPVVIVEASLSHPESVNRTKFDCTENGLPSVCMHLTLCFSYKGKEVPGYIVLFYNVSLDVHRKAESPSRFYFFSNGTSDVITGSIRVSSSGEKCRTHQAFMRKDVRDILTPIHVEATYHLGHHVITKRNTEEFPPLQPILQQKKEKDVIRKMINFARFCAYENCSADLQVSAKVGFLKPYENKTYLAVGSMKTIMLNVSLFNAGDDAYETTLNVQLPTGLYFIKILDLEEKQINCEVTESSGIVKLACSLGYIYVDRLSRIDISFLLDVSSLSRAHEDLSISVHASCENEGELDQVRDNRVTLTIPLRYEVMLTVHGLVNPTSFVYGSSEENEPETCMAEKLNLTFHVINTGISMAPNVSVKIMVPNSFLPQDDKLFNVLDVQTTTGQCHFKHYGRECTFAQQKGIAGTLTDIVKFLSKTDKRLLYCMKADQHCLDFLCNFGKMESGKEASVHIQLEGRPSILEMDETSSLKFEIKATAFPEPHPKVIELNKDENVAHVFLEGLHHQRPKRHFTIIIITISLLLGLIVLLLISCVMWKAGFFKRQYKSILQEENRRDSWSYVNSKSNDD
α4β1 integrin on mouse B16 melanoma cells and mouse RAW macrophage cells, sequence (P09055 21-798, chain 2 of 2): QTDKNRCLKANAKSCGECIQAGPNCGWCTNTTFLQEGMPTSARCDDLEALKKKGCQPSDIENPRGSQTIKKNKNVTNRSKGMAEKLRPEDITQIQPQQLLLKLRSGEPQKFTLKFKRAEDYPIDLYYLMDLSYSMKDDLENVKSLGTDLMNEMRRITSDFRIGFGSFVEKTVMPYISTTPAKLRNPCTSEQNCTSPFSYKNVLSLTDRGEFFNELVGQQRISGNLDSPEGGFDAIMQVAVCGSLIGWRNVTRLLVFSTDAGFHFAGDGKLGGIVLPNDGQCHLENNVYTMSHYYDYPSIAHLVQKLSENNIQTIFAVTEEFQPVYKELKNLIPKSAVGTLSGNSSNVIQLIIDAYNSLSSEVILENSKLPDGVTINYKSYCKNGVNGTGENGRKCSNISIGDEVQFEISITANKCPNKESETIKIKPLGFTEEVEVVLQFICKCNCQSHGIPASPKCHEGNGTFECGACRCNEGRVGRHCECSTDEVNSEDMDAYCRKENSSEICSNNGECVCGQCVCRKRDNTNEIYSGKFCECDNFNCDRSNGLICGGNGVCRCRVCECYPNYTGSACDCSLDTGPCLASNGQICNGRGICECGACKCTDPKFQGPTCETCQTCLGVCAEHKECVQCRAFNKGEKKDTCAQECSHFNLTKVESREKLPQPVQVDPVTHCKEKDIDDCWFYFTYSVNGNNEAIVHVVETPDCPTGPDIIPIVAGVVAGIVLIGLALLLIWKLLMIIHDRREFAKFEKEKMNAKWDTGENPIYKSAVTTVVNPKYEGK

α9β1 integrin on mouse RAW macrophage cells, sequence (B8JK39 29-1036, chain 1 of 2): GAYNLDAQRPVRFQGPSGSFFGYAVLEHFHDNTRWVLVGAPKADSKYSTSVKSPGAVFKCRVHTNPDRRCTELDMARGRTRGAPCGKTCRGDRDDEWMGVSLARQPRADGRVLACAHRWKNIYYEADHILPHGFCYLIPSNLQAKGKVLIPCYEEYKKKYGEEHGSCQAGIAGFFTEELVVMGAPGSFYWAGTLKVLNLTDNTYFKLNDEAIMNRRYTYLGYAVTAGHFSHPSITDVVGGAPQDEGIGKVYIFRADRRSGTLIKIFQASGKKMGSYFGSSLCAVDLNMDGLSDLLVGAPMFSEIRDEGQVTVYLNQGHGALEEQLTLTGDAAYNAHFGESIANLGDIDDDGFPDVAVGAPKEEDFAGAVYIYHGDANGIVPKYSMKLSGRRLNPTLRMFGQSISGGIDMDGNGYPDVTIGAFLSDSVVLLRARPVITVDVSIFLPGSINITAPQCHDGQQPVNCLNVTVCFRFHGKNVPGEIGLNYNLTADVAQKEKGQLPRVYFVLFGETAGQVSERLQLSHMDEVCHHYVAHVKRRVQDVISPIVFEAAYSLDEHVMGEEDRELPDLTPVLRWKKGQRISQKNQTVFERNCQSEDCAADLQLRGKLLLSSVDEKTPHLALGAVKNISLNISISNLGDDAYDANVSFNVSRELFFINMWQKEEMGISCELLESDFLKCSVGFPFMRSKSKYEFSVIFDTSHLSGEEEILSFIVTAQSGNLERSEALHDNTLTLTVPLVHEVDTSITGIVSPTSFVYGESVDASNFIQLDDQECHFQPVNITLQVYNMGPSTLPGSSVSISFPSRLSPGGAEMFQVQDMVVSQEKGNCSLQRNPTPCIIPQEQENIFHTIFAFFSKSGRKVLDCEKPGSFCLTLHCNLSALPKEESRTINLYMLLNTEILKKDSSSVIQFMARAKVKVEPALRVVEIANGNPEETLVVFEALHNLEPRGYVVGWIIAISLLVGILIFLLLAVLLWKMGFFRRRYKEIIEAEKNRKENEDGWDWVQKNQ
α9β1 integrin on mouse RAW macrophage cells, sequence (P09055 21-798, chain 2 of 2): as the sequence (P09055 21-798, chain 2 of 2) above

PGE2 secretion in RAW cells [1]: ~4.2 fold | B16 cell adhesion [2]: ~3.5 fold | PGE2 secretion in RAW cells [2]: ~4.2 fold
Binder: RGDSVVYGLR (ligand) [Thrombin-cleaved OPN-Arg (OPN-R)]
